No end group written: not given here.
B1: Ca2+-bound S100B (bovine) covalently modified at Cys84 by SC124 (natural protein)
chain: MSELEKAVVALIDVFHQYSGREGDKHKLKKSELKELINNELSHFLEEIKEQEVVDKVMETLDSDGDGECDFQEFMAFVAMITTACHEFFEHE
modifications: Cys84 covalently bound to the adduct of SC124 (disulfiram)
B2: Ca2+-bound S100B (bovine) covalently modified at Cys84 by SC1982 (natural protein)
chain: MSELEKAVVALIDVFHQYSGREGDKHKLKKSELKELINNELSHFLEEIKEQEVVDKVMETLDSDGDGECDFQEFMAFVAMITTACHEFFEHE
modifications: Cys84 covalently bound to SC1982 (Rubescensin A) by Michael addition
B3: Ca2+-bound S100B (bovine) covalently modified at Cys84 by SBi4172 (natural protein)
chain: MSELEKAVVALIDVFHQYSGREGDKHKLKKSELKELINNELSHFLEEIKEQEVVDKVMETLDSDGDGECDFQEFMAFVAMITTACHEFFEHE
modifications: Cys84 covalently bound to SBi4172 (chelerythrine); the compound could be modelled in chain B only
B4: Ca2+-bound S100B (bovine) covalently modified at Cys84 by SC1475 (natural protein)
chain: MSELEKAVVALIDVFHQYSGREGDKHKLKKSELKELINNELSHFLEEIKEQEVVDKVMETLDSDGDGECDFQEFMAFVAMITTACHEFFEHE
modifications: Cys84 covalently bound to SC1475 (3,4-dimethoxydalbergione)
B5: Ca2+-bound S100B (bovine) covalently modified at Cys84 by SBi4434 (natural protein)
chain: MSELEKAVVALIDVFHQYSGREGDKHKLKKSELKELINNELSHFLEEIKEQEVVDKVMETLDSDGDGECDFQEFMAFVAMITTACHEFFEHE
modifications: Cys84 covalently bound to SBi4434 (2,3-bis[(2-hydroxyethyl)thio]-1,4-naphthoquinone), the thiol replacing one thioglycol moiety

Biological target: the molecule itself
Assay: crystal structure

Row | Binder | binding result
1 | B1 | binds
2 | B2 | binds
3 | B3 | binds
4 | B4 | binds
5 | B5 | binds

These binders were tested against T1, S100B (rat), Ca2+-loaded (rat, UniProt P04631 1-92) (assay: fluorescence polarisation).
T1 sequence: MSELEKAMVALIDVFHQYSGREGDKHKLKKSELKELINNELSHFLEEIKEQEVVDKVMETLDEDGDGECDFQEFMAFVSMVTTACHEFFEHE

Row | Binder | binding result
6 | TRTKIDWNKILS (also: TAMRA label, position not given here) [TAMRA-labeled peptide TRTK12] | binds

Source: publication PMC4211652 (Biochemistry, 2014)
